The target of the assay is VISTA-Fc human recombinant protein (human), Q9H7M9. Kind of assay: synchrotron radiation circular dichroism (SRCD) titration; fixed concentration of VISTA-Fc (or human Ig-Fc) and increasing concentrations of galectin-9, in solution; 23°C. Conditions: remark: other sources report otherwise. (In general: Circular dichroism is the unequal absorption of left and right circularly polarised light.)

B1: human recombinant galectin-9, O00182 1-355 (ligand)
chain: MAFSGSQAPYLSPAVPFSGTIQGGLQDGLQITVNGTVLSSSGTRFAVNFQTGFSGNDIAFHFNPRFEDGGYVVCNTRQNGSWGPEERKTHMPFQKGMPFDLCFLVQSSDFKVMVNGILFVQYFHRVPFHRVDTISVNGSVQLSYISFQNPRTVPVQPAFSTVPFSQPVCFPPRPRGRRQKPPGVWPANPAPITQTVIHTVQSAPGQMFSTPAIPPMMYPHPAYPMPFITTILGGLYPSKSILLSGTVLPSAQRFHINLCSGNHIAFHLNPRFDENAVVRNTQIDNSWGSEERSLPRKMPFVRGQSFSVWILCEAHCLKVAVDGQHLFEYYHRLRNLPTINRLEVGGDIQLTHVQT
As a reminder, the Kd is the constant that tells how readily two partners part at equilibrium. Regarding B1, the dissociation constant (Kd) was 18 nM.

(Values after article PMC7715031.)
